Results published in patent publication US20240294963.

How the values were obtained:
Interferon-gamma (IFNγ) = Interferon-gamma (IFNγ) (UniProt P01579)
[1] = system: constant region (Fc) of a human immunoglobulin antibody (IgG1) [IgG part: P01857]
[2] = biological target: Granulocyte-Macrophage Colony-Stimulating Factor (GM-CSF) (UniProt P04141)
[3] = system: T1, peptide with the LNLS sequence from GM-CSF
T1 sequence: LNLS

[4] = system: T2, peptide with the YNST sequence from Fc
T2 sequence: YNST

[5] = system: T3, peptide with the sequence TNYS found in IFNγ
T3 sequence: TNYS

Sequence of Interferon-gamma (IFNγ) (P01579 24-166): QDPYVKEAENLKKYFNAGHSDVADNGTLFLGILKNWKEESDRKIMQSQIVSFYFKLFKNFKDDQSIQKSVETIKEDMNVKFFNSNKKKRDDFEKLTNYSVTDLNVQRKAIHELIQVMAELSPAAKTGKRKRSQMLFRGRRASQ
Sequence of Granulocyte-Macrophage Colony-Stimulating Factor (GM-CSF) (P04141 18-144): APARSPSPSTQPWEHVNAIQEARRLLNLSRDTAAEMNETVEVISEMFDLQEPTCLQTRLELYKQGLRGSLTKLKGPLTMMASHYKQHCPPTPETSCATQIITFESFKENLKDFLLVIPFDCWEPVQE

Substance: Q469A mutant of Actinobacillus pleuropneumoniae N-glycosyltransferase (ApNGT)
- protein modification (glycosylation), LC-qTOF of tryptic peptides (Interferon-gamma (IFNγ)): ApQ showed no detectable modification of IFNγ (marked as "ND")
- glycosylation efficiency of Fc, 2 µM ApQ added after CFPS [1]: the glycosylation efficiency of Fc was increased from 15% to 46%
- glycosylation efficiency of Fc, 2 µM ApQ added before CFPS [1]: the glycosylation efficiency of Fc was increased from 15% to 46%

Substance: ApQ mutant T438S
- protein modification (glycosylation), LC-qTOF of tryptic peptides [2]: increase the modification of the therapeutic proteins IFNγ GM-CSF, and Fc using the A469I, T438S, and H495D mutants of ApQ, respectively
- peptide modification (glycosylation), SAMDI-MS [3]: T438S glycosylated the LNLS sequence from GM-CSF more efficiently than did ApQ

Substance: ApQ mutant H495D
- modification of Fc relative to ApQ, 2 µM H495D added before CFPS [1]: significantly increased the modification of Fc to 60% or by 1.3-fold
- modification of Fc, 2 µM H495D added before CFPS [1]: significantly increased the modification of Fc to 60% or by 1.3-fold
- modification of Fc, 5 µM H495D during CFPS [1]: 80% modification of Fc could be achieved
- peptide modification (glycosylation), SAMDI-MS [4]: H495D glycosylated the YNST sequence from Fc more efficiently than did ApQ

Substance: ApQ mutant A469I
- protein modification (glycosylation), LC-qTOF of tryptic peptides (Interferon-gamma (IFNγ)): increase the modification of the therapeutic proteins IFNγ GM-CSF, and Fc using the A469I, T438S, and H495D mutants of ApQ, respectively
- peptide modification (glycosylation), SAMDI-MS [5]: the purified A469I mutant glycosylated the sequence TNYS found in IFNγ more efficiently than did ApQ
